Assay [1] deals with tubulin (sheep brain) (sheep). In words: co-sedimentation; 20 μM tubulin polymerised with 5 μM YB-1 in buffer M with 10% glycerol at 37°C to steady state, microtubules pelleted at 300 000 × g; SDS-PAGE, visual estimation on Coomassie stained gels. To be noted: scale: mole of YB-1 per mole of tubulin heterodimer.
Assay [2] addresses tubulin (sheep brain) (sheep). In words: co-sedimentation; 20 μM tubulin polymerised with 10 μM YB-1 in buffer M with 10% glycerol at 37°C to steady state, microtubules pelleted at 300 000 × g; SDS-PAGE, visual estimation on Coomassie stained gels. To be noted: scale: mole of YB-1 per mole of tubulin heterodimer.

In general, stoichiometry N refers to a count of units in the complex or per binding partner.

Chain of YB-1 (Q28618 whole entry): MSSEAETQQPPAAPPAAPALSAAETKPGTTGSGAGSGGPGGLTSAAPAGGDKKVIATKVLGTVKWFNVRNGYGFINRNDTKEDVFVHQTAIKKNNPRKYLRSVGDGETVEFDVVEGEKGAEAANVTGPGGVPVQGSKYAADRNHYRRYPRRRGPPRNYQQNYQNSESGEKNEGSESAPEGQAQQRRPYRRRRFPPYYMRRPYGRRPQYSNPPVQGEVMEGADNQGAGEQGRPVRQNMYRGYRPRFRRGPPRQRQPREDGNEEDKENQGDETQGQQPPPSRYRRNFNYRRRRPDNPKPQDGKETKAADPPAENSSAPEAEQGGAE

In the case of “YB-1 (from UniProt Q28618 1-324) (natural protein)”, the results for the stoichiometry N in assay [1] and in assay [2] were 0.33 and 0.5, respectively.

The values are drawn from paper PMC2557009.
